Source: PMC9430756, “AhrC Negatively Regulates Streptococcus mutans Arginine Biosynthesis”

Tests used:
[1] = biological target: T1, AhrC (Streptococcus mutans UA159) (UniProt Q8DVB1); assay: EMSA; details: EMSA: 20 mM Tris-HCl, 100 mM NaCl, 5% glycerol, 30 min on ice, pH not stated; native PAGE in 0.5x TBE at 4 C. Footprinting: DNase I 0.1 Kunitz units/uL, 4 min …
T1 sequence: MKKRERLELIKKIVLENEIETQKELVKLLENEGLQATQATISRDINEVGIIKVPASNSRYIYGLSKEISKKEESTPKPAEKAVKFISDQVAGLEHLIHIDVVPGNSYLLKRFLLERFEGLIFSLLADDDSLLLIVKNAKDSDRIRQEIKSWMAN

AhrC [2] = biological target: T2, AhrC (Streptococcus mutans UA159, UniProt Q8DVB1 1-154); assay: EMSA; details: protein: recombinant; tags: 6xHis (pET28a, NotI/XhoI); chain copies: 6; label: FAM
T2 sequence: T1 sequence

AhrC [3] = biological target: T2, AhrC; assay: EMSA; EMSA: 20 mM Tris-HCl, 100 mM NaCl, 5% glycerol, 30 min on ice, pH not stated; native PAGE in 0.5x TBE at 4 C. Footprinting: DNase I 0.1 Kunitz units/uL, 4 min at 37 C; details: protein: recombinant; tags: 6xHis (pET28a, NotI/XhoI); chain copies: 6; label: FAM

Molecule: AATAATTTTGTTATCATGAGTTAAAGTATCTAGTTATAAACTAGGTACTTTTTACATTTTATTCATTTCTAGCTTGACTTATGAATAAATATACGATAAAATAAACAACATCTTTATAAAGGAAGTGAATAAGT (double strand) [argC promoter (argCp)]
- binding [1]: binds

B1: argC p1mut (dsDNA)
DNA 1: CATTTCTAGCTTGCCCCCCGACCCCCCATACGATAAA
DNA 2: TTTATCGTATGGGGGGTCGGGGGGCAAGCTAGAAATG
- binding result (AhrC [2]): no binding

B2: argC p1 (dsDNA)
DNA 1: CATTTCTAGCTTGACTTATGAATAAATATACGATAAA
DNA 2: TTTATCGTATATTTATTCATAAGTCAAGCTAGAAATG
- binding result (AhrC [3]): binds
